We go through three molecules from patent US7220837.

Series [1] has as its target membrane-associated tissue factor (Innovin, Dade) (UniProt P13726).
The target of series [2] is T1, membrane-associated tissue factor (Innovin, Dade), P13726.
T1 chain: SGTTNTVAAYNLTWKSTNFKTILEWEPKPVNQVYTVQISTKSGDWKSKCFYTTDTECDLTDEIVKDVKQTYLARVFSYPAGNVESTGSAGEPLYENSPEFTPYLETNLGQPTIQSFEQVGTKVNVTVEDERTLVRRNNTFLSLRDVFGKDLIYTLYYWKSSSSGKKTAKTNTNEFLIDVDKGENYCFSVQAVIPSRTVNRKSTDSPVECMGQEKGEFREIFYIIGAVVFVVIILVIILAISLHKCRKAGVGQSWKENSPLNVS

For Factor VII mutant Q11E33I34F35, in series [1], the “activity in the competitive assay of Example 6” value (“activity” for short) is reported as “displayed similar activity as the Q11E33F34I35 mutant”.

B1: factor VII mutant Q11E33D36 (protein)
chain: ANAFLEELRQGSLERECKEEQCSFEEAREIFEDADRTKLFWISYSDGDQCASSPCQNGGSCKDQLQSYICFCLPAFEGRNCETHKDDQLICVNENGGCEQYCSDHTGTKRSCRCHEGYSLLADGVSCTPTVEYPCGKIPILEKRNASKPQGRIVGGKVCPKGECPWQVLLLVNGAQLCGGTLINTIWVVSAAHCFDKIKNWRNLIAVLGEHDLSEHDGDEQSRRVAQVIIPSTYVPGTTNHDIALLRLHQPVVLTDHVVPLCLPERTFSERTLAFVRFSLVSGWGQLLDRGATALELMVLNVPRLMTQDCLQQSRKVGDSPNITEYMFCAGYSDGSKDSCKGDSGGPHATHYRGTWYLTGIVSWGQGCATVGHFGVYTRVSQYIEWLQKLMRSEPRPGVLLRAPFP
B1: the “activity” value in series [2] is given as “had 70% the activity of the Q11E33 mutant”.

B2: factor VII F5K (protein)
chain: ANAKLEELRPGSLERECKEEQCSFEEAREIFKDAERTKLFWISYSDGDQCASSPCQNGGSCKDQLQSYICFCLPAFEGRNCETHKDDQLICVNENGGCEQYCSDHTGTKRSCRCHEGYSLLADGVSCTPTVEYPCGKIPILEKRNASKPQGRIVGGKVCPKGECPWQVLLLVNGAQLCGGTLINTIWVVSAAHCFDKIKNWRNLIAVLGEHDLSEHDGDEQSRRVAQVIIPSTYVPGTTNHDIALLRLHQPVVLTDHVVPLCLPERTFSERTLAFVRFSLVSGWGQLLDRGATALELMVLNVPRLMTQDCLQQSRKVGDSPNITEYMFCAGYSDGSKDSCKGDSGGPHATHYRGTWYLTGIVSWGQGCATVGHFGVYTRVSQYIEWLQKLMRSEPRPGVLLRAPFP
With B2, in series [2], the “activity” value was 33% of the activity of wild type factor VII.
